Results taken from the supplement of paper PMC7877785.
± gives the uncertainty stated by the source.

Assay: self-splicing fitness, log relative to wild type (ln ratio); higher = more splicing; Tetrahymena group I intron in knt gene, E. coli kanamycin selection, DiMSum; sequences stand for … in CUCUCU…GGAGGGAAAAGUUAUCAGGCAUGCACCUGGUAGCUAGUCUUUAAACCAAUAGAUUGCAUCGGUUUAAAAGGCAAGACCGUCAAAUUGCGGGAAAGGGGUCAACAGCCGUUCAGUACCAAGUCUCAGGGGAAACUUUGAGAUGGCCUUGCAAAGGGUAUGGUAAUAAGCUGACGGACAUGGUCCUAACCACGCAGCCAAGUCCUAAGUCAACAGAUCUUCUGUUGAUAUGGAUGCAGUUCACAGACUAAAUGUCGGUCGGGGAAGAUGUAUUCUUCUCAUAAGAUAUAGUCGGACCUCUCCUUAAUGGGAGCUAGCGGAUGAAGUGAUGCAACACUGGAGCCGCUGGGAACUAAUUUGUAUGCGAAAGUAUAUUGAUUAGUUUUGGAGUACUCGUGGUCG
Summary of the method: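 The eight P1ex-region nucleotides of an intron in the knt kanamycin-resistance gene on pET-22b(+) were all randomised and the library put into E. coli BL21(DE3). Six replicate transformations were grown overnight at 37°C or 30°C on LB agar with or without 25 μg/mL kanamycin, together with 100 μg/mL carbenicillin, 50 μM IPTG and 0.2% rhamnose. Colonies were pooled and amplicon-sequenced on an Illumina HiSeq 2500. Fitness from DiMSum is the error-weighted combination of wild-type-normalised replicate fold changes, kanamycin over none.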

| Sequence | self-splicing fitness (ln) (30 °C) | self-splicing fitness (ln) (37 °C) |
| --- | --- | --- |
| UAUAAGCAAUAUUACGGCUG | 0.381 ± 0.13 | 0.0603 ± 0.14 |
| AUAAAGCAAUAUUACGUUAU | -0.793 ± 0.064 | -0.4 ± 0.11 |
| CCCGAGCAAUAUUACGCCUC | – | -1.77 ± 0.34 |
| GACGAGCAAUAUUACGAGAC | -3.99 ± 0.28 | -1.95 ± 0.28 |
| ACUAAGCAAUAUUACGCUGC | -2.57 ± 0.15 | -2.17 ± 0.14 |
| CCCUAGCAAUAUUACGAAGC | -2.97 ± 0.43 | -2.92 ± 0.27 |
| CUCUAGCAAUAUUACGGAAG | -2.95 ± 0.13 | -1.34 ± 0.12 |
| UUUAAGCAAUAUUACGGUUC | -3.56 ± 0.21 | -2.47 ± 0.2 |
| GAAAAGCAAUAUUACGUUUU | -3.8 ± 0.18 | -2.4 ± 0.13 |
| GAUGAGCAAUAUUACGCCCG | -3 ± 0.36 | -2.08 ± 0.43 |
| UACGAGCAAUAUUACGGGUA | -1.64 ± 0.14 | -1.43 ± 0.14 |
| ACUUAGCAAUAUUACGGCAU | -1.01 ± 0.071 | -0.0593 ± 0.088 |
| UAAAAGCAAUAUUACGAGUU | -2.99 ± 0.16 | -1.91 ± 0.14 |
| AUAUAGCAAUAUUACGUAGG | -3.06 ± 0.21 | -0.744 ± 0.16 |
| CUUCAGCAAUAUUACGUCAA | -1.25 ± 0.34 | – |
| CCCAAGCAAUAUUACGGGGC | -4.7 ± 0.39 | -3.08 ± 0.27 |
| UAUUAGCAAUAUUACGUCGA | -1.27 ± 0.16 | -0.984 ± 0.17 |
| GUAGAGCAAUAUUACGACGU | -0.438 ± 0.16 | 0.352 ± 0.16 |
| AACGAGCAAUAUUACGGUCU | -2.03 ± 0.093 | -0.898 ± 0.1 |
| AAAGAGCAAUAUUACGCAAC | -2.78 ± 0.26 | -1.77 ± 0.42 |
| ACAUAGCAAUAUUACGAUUU | -0.687 ± 0.062 | -0.157 ± 0.081 |
| AUGCAGCAAUAUUACGGCGA | -0.313 ± 0.1 | 0.239 ± 0.13 |
| GGGGAGCAAUAUUACGUAUG | – | -1.58 ± 0.31 |
| GUGCAGCAAUAUUACGCUAG | -3.71 ± 0.31 | -2.47 ± 0.32 |
| GGUUAGCAAUAUUACGAUUA | -0.191 ± 0.13 | 0.0365 ± 0.12 |
| AAUUAGCAAUAUUACGCGGG | -2.73 ± 0.15 | -0.941 ± 0.14 |

| Sequence | self-splicing fitness (ln) (30 °C) | self-splicing fitness (ln) (37 °C) |
| --- | --- | --- |
| CCAUAGCAAUAUUACGGUUA | -3.57 ± 0.29 | -2.73 ± 0.21 |
| AAACAGCAAUAUUACGGAAA | -3.16 ± 0.18 | -1.8 ± 0.13 |
| UUGAAGCAAUAUUACGGUAC | -2.04 ± 0.22 | -2.44 ± 0.31 |
| GGGUAGCAAUAUUACGAUUC | -0.648 ± 0.12 | 0.268 ± 0.19 |
| AUCGAGCAAUAUUACGCAUG | -3.62 ± 0.37 | -2.62 ± 0.26 |
| CAUCAGCAAUAUUACGCGAU | -3.69 ± 0.23 | -2.86 ± 0.32 |
| CGAAAGCAAUAUUACGGGCG | -0.207 ± 0.098 | -0.157 ± 0.13 |
| CCGUAGCAAUAUUACGUGCA | -3.06 ± 0.21 | -2.88 ± 0.15 |
| UACAAGCAAUAUUACGAAUC | -3.62 ± 0.17 | -2.7 ± 0.22 |
| GGAGAGCAAUAUUACGUGGU | -3.28 ± 0.16 | -3.01 ± 0.26 |
| CUUAAGCAAUAUUACGUGCG | -1.34 ± 0.079 | -0.172 ± 0.1 |
| GGGAAGCAAUAUUACGAACG | -0.494 ± 0.086 | 0.55 ± 0.16 |
| AGGGAGCAAUAUUACGGCCA | -2.33 ± 0.33 | -0.91 ± 0.31 |
| GCUAAGCAAUAUUACGUUAC | -3.73 ± 0.26 | -1.01 ± 0.16 |
| ACGCAGCAAUAUUACGACUG | -2.72 ± 0.14 | -2.02 ± 0.2 |
| AUUCAGCAAUAUUACGCGAA | -1.9 ± 0.15 | -1.73 ± 0.17 |
| AACGAGCAAUAUUACGCCUG | -3.77 ± 0.32 | – |
| CACAAGCAAUAUUACGUCUC | -3.1 ± 0.25 | -2.5 ± 0.22 |
| GCCAAGCAAUAUUACGCAGG | -2.98 ± 0.17 | -2.05 ± 0.24 |
| GAAUAGCAAUAUUACGUAGC | -3.4 ± 0.17 | -1.1 ± 0.12 |
| AGCGAGCAAUAUUACGCAUC | -2.51 ± 0.36 | -2.33 ± 0.33 |
| GCGAAGCAAUAUUACGAAUA | -2.34 ± 0.19 | -1.73 ± 0.24 |
| CAAGAGCAAUAUUACGAGUA | – | -1.56 ± 0.27 |
| CACCAGCAAUAUUACGGUGG | -2.71 ± 0.077 | -1.59 ± 0.084 |
| GAAAAGCAAUAUUACGUCAC | -2.2 ± 0.19 | -1.64 ± 0.31 |
| CCAUAGCAAUAUUACGUAGC | -2.52 ± 0.21 | -2.05 ± 0.47 |

| Sequence | self-splicing fitness (ln) (30 °C) | self-splicing fitness (ln) (37 °C) |
| --- | --- | --- |
| UUCUAGCAAUAUUACGAUCC | – | -2.65 ± 0.38 |
| UCCCAGCAAUAUUACGUCAA | -2.71 ± 0.18 | -1.13 ± 0.16 |
| CCAGAGCAAUAUUACGGCGA | -3.16 ± 0.26 | -2.65 ± 0.29 |
| CUUUAGCAAUAUUACGUAGG | -1.05 ± 0.094 | -0.65 ± 0.13 |
| AUGCAGCAAUAUUACGGCUA | 0.452 ± 0.11 | 0.366 ± 0.12 |
| UGAAAGCAAUAUUACGCGCG | -0.237 ± 0.079 | -0.153 ± 0.1 |
| AGACAGCAAUAUUACGGAGA | -3.65 ± 0.18 | -2.55 ± 0.29 |
| GGGAAGCAAUAUUACGAACA | -1.2 ± 0.13 | -0.445 ± 0.14 |
| CGCCAGCAAUAUUACGGGUU | -2.64 ± 0.1 | -2.18 ± 0.12 |
| UCGCAGCAAUAUUACGCAAU | -2.15 ± 0.19 | -2.92 ± 0.35 |
| GCACAGCAAUAUUACGACGU | -0.591 ± 0.073 | -0.0751 ± 0.088 |
| AUACAGCAAUAUUACGACAG | -2.15 ± 0.14 | -2.03 ± 0.15 |
| UUCUAGCAAUAUUACGCGGA | -3.93 ± 0.3 | -3.75 ± 0.33 |
| GCAGAGCAAUAUUACGCGGU | -4.68 ± 0.29 | -3.16 ± 0.37 |
| UCGGAGCAAUAUUACGCAAG | – | -2.23 ± 0.43 |
| GAUGAGCAAUAUUACGUCGC | -4.14 ± 0.29 | -2.7 ± 0.26 |
| AUGUAGCAAUAUUACGAGCU | -0.582 ± 0.14 | -0.987 ± 0.2 |
| ACGCAGCAAUAUUACGUGGC | -2.88 ± 0.14 | -2.26 ± 0.17 |
| CGCUAGCAAUAUUACGUUUG | -2.31 ± 0.085 | -0.505 ± 0.094 |
| UUGAAGCAAUAUUACGAACG | 0.338 ± 0.093 | 0.443 ± 0.12 |
| GGUUAGCAAUAUUACGAACU | -1.88 ± 0.27 | -0.492 ± 0.34 |
| CCUAAGCAAUAUUACGACCG | -1.24 ± 0.14 | -0.121 ± 0.13 |
| CGGAAGCAAUAUUACGUAAA | -2.94 ± 0.21 | -1.79 ± 0.23 |
| UCAUAGCAAUAUUACGGGCC | – | -3.67 ± 0.46 |
| ACACAGCAAUAUUACGCUGU | -3.38 ± 0.14 | -3 ± 0.21 |
